{"source": "paper PMC10397247", "key": {"[1]": {"target": "T1, P12A-bP", "T1 chain": "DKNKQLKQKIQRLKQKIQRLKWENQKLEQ", "assay": "two-hybrid library CCNG1;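 note: natural log of median RNA to DNA barcode read ratio; higher means stronger binding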"}, "[2]": {"target": "T2, P1A-bP", "T2 chain": "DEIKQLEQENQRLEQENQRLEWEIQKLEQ", "assay": "two-hybrid library CCNG1"}, "[3]": {"target": "T3, P2A-bP", "T3 chain": "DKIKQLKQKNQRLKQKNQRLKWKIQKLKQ", "assay": "two-hybrid library CCNG1"}, "[4]": {"target": "T4, P3A-bP", "T4 chain": "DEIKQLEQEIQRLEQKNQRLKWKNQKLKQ", "assay": "two-hybrid library CCNG1"}, "[5]": {"target": "T5, P4A-bP", "T5 chain": "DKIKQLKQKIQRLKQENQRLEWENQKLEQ", "assay": "two-hybrid library CCNG1"}, "[6]": {"target": "T6, P5A-bP", "T6 chain": "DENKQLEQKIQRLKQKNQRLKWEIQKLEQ", "assay": "two-hybrid library CCNG1"}, "[7]": {"target": "T7, P6A-bP", "T7 chain": "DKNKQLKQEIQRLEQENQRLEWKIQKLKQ", "assay": "two-hybrid library CCNG1"}, "[8]": {"target": "T8, P7A-bP", "T8 chain": "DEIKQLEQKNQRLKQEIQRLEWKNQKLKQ", "assay": "two-hybrid library CCNG1"}, "[9]": {"target": "T9, P8A-bP", "T9 chain": "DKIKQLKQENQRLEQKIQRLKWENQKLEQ", "assay": "two-hybrid library CCNG1"}, "[10]": {"target": "T10, P9A-bP", "T10 chain": "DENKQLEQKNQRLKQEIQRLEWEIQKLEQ", "assay": "two-hybrid library CCNG1"}, "[11]": {"target": "T11, 4H1710-AA", "T11 chain": "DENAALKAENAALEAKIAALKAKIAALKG", "assay": "two-hybrid library CCmax"}, "[12]": {"target": "T12, 4H1985-AA", "T12 chain": "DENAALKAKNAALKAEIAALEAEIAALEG", "assay": "two-hybrid library CCmax", "settings": "mean of both orientations"}, "[13]": {"target": "T13, 4H2187-AA", "T13 chain": "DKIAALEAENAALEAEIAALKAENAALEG", "assay": "two-hybrid library CCmax"}, "[14]": {"target": "T14, 4H233-AA", "T14 chain": "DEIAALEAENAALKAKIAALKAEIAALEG", "assay": "two-hybrid library CCmax", "settings": "mean of both orientations"}, "[15]": {"target": "T15, 4H2512-AA", "T15 chain": "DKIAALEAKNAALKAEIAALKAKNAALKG", "assay": "two-hybrid library CCmax", "settings": "mean of both orientations"}, "[16]": {"target": "T16, 4H2646-AA", "T16 chain": "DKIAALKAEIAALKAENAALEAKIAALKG", "assay": "two-hybrid library CCmax", "settings": "mean of both orientations"}, "[17]": {"target": "T17, 4H2687-AA", "T17 chain": "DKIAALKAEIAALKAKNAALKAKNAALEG", "assay": "two-hybrid library CCmax", "settings": "mean of both orientations"}, "[18]": {"target": "T18, 4H2705-AA", "T18 chain": "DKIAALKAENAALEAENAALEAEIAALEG", "assay": "two-hybrid library CCmax", "settings": "mean of both orientations"}, "[19]": {"target": "T19, 4H2758-AA", "T19 chain": "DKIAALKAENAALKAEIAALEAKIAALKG", "assay": "two-hybrid library CCmax", "settings": "mean of both orientations"}, "[20]": {"target": "T20, 4H278-AA", "T20 chain": "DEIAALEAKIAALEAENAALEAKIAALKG", "assay": "two-hybrid library CCmax", "settings": "mean of both orientations"}, "[21]": {"target": "T21, 4H2873-AA", "T21 chain": "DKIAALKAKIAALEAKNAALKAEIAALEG", "assay": "two-hybrid library CCmax", "settings": "mean of both orientations"}, "[22]": {"target": "T22, 4H2985-AA", "T22 chain": "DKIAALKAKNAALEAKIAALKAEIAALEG", "assay": "two-hybrid library CCmax", "settings": "mean of both orientations"}, "[23]": {"target": "T23, 4H3134-AA", "T23 chain": "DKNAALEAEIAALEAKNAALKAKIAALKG", "assay": "two-hybrid library CCmax", "settings": "mean of both orientations"}, "[24]": {"target": "T24, 4H3409-AA", "T24 chain": "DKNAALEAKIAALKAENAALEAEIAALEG", "assay": "two-hybrid library CCmax", "settings": "mean of both orientations"}, "[25]": {"target": "T25, 4H3625-AA", "T25 chain": "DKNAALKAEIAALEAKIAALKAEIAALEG", "assay": "two-hybrid library CCmax", "settings": "mean of both orientations"}, "[26]": {"target": "T26, 4H390-AA", "T26 chain": "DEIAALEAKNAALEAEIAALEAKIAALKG", "assay": "two-hybrid library CCmax", "settings": "mean of both orientations"}, "[27]": {"target": "T27, 4H3940-AA", "T27 chain": "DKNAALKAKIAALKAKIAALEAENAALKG", "assay": "two-hybrid library CCmax", "settings": "mean of both orientations"}, "[28]": {"target": "T28, 4H510-AA", "T28 chain": "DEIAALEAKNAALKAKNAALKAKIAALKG", "assay": "two-hybrid library CCmax", "settings": "mean of both orientations"}, "[29]": {"target": "T29, 4H775-AA", "T29 chain": "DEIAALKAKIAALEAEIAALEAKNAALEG", "assay": "two-hybrid library CCmax", "settings": "mean of both orientations"}, "[30]": {"target": "T30, 4H816-AA", "T30 chain": "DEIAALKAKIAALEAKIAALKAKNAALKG", "assay": "two-hybrid library CCmax", "settings": "mean of both orientations"}, "[31]": {"target": "T31, 4H87-AA", "T31 chain": "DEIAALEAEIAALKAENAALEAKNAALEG", "assay": "two-hybrid library CCmax", "settings": "mean of both orientations"}}, "data": [{"binder": "DKNKQLKQKIQRLKQKIQRLKWENQKLEQ", "note": "[P12A-bP]", "values": [{"measurement": "interaction score", "setting": "[1]", "value": -1.39}, {"measurement": "interaction score", "setting": "[2]", "value": -0.938}, {"measurement": "interaction score", "setting": "[3]", "value": -1.47}, {"measurement": "interaction score", "setting": "[4]", "value": 1.06}, {"measurement": "interaction score", "setting": "[5]", "value": -1.3}, {"measurement": "interaction score", "setting": "[6]", "value": -1.95}, {"measurement": "interaction score", "setting": "[7]", "value": -1.09}, {"measurement": "interaction score", "setting": "[8]", "value": -1.24}, {"measurement": "interaction score", "setting": "[9]", "value": -1.36}, {"measurement": "interaction score", "setting": "[10]", "value": -0.693}]}, {"binder": "DENAALKAENAALEAKIAALKAKIAALKG", "note": "[4H1710-AA]", "values": [{"measurement": "interaction score", "setting": "[11]", "value": -0.109}, {"measurement": "interaction score", "setting": "[12]", "value": 2.15}, {"measurement": "interaction score", "setting": "[13]", "value": -0.907}, {"measurement": "interaction score", "setting": "[14]", "value": 1.63}, {"measurement": "interaction score", "setting": "[15]", "value": -0.967}, {"measurement": "interaction score", "setting": "[16]", "value": -1.37}, {"measurement": "interaction score", "setting": "[17]", "value": -1.29}, {"measurement": "interaction score", "setting": "[18]", "value": -0.626}, {"measurement": "interaction score", "setting": "[19]", "value": 1.82}, {"measurement": "interaction score", "setting": "[20]", "value": -0.799}, {"measurement": "interaction score", "setting": "[21]", "value": -0.937}, {"measurement": "interaction score", "setting": "[22]", "value": 0.52}, {"measurement": "interaction score", "setting": "[23]", "value": -0.882}, {"measurement": "interaction score", "setting": "[24]", "value": -0.675}, {"measurement": "interaction score", "setting": "[25]", "value": -0.181}, {"measurement": "interaction score", "setting": "[26]", "value": 1.21}, {"measurement": "interaction score", "setting": "[27]", "value": -0.657}, {"measurement": "interaction score", "setting": "[28]", "value": -0.836}, {"measurement": "interaction score", "setting": "[29]", "value": -0.259}, {"measurement": "interaction score", "setting": "[30]", "value": -0.912}, {"measurement": "interaction score", "setting": "[31]", "value": -1.16}]}]}
